Legend:
GRG36 [1] = experiment: Kinetic constants of GRG36 enzymes (Km, Ki, Vmax); type: biochemical; settings: for Km: substrate phosphoenolpyruvate; for Ki: glyphosate, (−)x-intercept of Kobs vs. glyphosate concentration
Procedure: The syngrg36 DNA library was transformed into E. coli strain BL21*DE3 star (Invitrogen) for induction of protein expression. Following transformation, individual colonies were plated on 1×M63 medium containing 25 mM glyphosate to select for clones that had retained enzymatic activity and growth tolerance. Individual colonies were picked and arrayed into 384-well plates to create a mutagenized library for enzymatic activity screening. Two 384-well plates were created in this manner. Enzymatic activity screening was carried out as follows. Library clones were pinned into 96-well blocks containing LB medium and were grown to A600=0.6. IPTG was then added (0.5 mM) and the blocks were incubated overnight at 20° C. to induce protein expression. Next, protein extracts were prepared from individual cultures using POPCULTURE® reagent (Novagen) and the enzymatic activity was measured as disclosed in U.S. patent application Ser. No. 11/651,752, filed Jan. 10, 2007, herein incorporated by reference in its entirety. […] These 6 were selected for further characterization.
Additionally, enzymatic assays were carried out to calculate the kinetic constants for substrate binding affinity (Km), glyphosate binding (Ki) and enzymatic rate (Vmax). Briefly, each enzyme was titrated with the substrate phosphoenolpyruvate and the linear enzymatic rate was plotted versus the substrate concentration. This plot was fit to the Michaelis-Menton equation to calculate the substrate concentration that produced one-half of the maximal rate (Km), and the maximal rate obtained at saturating substrate was divided by the enzyme concentration to yield Vmax. Next, additional substrate titrations were carried out at various glyphosate concentrations, and the apparent binding constant at each glyphosate concentration (Kobs) was plotted against the glyphosate concentration to yield a straight line. The Ki was measured as (−)x-intercept.

GRG36 [2] = settings: for fold higher thermostability at 37° C. than wild-type GRG36: relative to wild-type GRG36
Procedure: Following induction, each GRG36 protein variant was purified by affinity chromatography to a cobalt resin (Novagen). The purified proteins were tested for enzymatic activity following heating for 0, 4 and 6 hours at 37° C.

Row | Molecule | Vmax (GRG36 [1]) | activity at 1 mM glyphosate compared with GRG36 (GRG36 [1]; 1 mM glyphosate) | Km (GRG36 [1]) | Half-life at 37° C. (GRG36 [2]) | fold higher thermostability at 37° C. than wild-type GRG36 (GRG36 [2]) | Ki (GRG36 [1])
1 | GRG36(ace7): GRG36 protein variant, SEQ ID NO:27, encoded by syngrg36(ace7) (protein, GRG36 variant (GRG36(ace7))) MKNQNFDAKARSPWTPLKGVNKISVSPSKGRINGTVTIPGSKSLTNRALIISSLASGKSKVQGILKSDDSFWCLDSLKKLGVNVKIQGDIAFIEGNGGKWESGDLYIGAAGTIARFLPGALAVSGTGIWELEASKSMSKRPISPQVDALKELGAEITYLSDQGYYPLLVKGKQLNGGEVELSGRISSQFISGLLIASPYLNDPIKINIKDHIVQHSYVLLTLELMKKFGAKVKYDSSLKEIVVYPSKYTPQDINLEADVSTACYFLALAAVTNGKVQIDNLTYETKQPDIKMVDILERMGCKVTRGSSFIEIEGVSQLKGGFEISMREMSDQVLTLAAIAPFADEPITIKDVEHIRHHESNRISVLVDSLSRLGIIVEEFKDGLKVYPGNPKATLLDTHDDHRVAMALSLIGSRVEGIQINDPGCVSKTCPQYFELLEKLGLNIIKH | 1.8 nmol/min/µg | very similar activity | 9.8 µM | 18.8 h | 7.5 fold | –
2 | GRG36: wild-type GRG36 EPSP synthase, SEQ ID NO:4 (protein, derived from organism isolated from soil) MKNQNFDAKARSPWTPLKGVNKISVSPSKGRINGTVTIPGSKSLTNRALIISSLASGKSKVQGILKSDDSFWCLDSLKKLGVNVKIQGDTAFIEGNGGKWESGDLYIGAAGTIARFLPGALAVSGTGIWELEASKSMSKRPISPLVDALKELGAEITYLSDQGYYPLLVKGKQLNGGEVELSGRISSQFISGLLIASPYLNDPIKINIKDHIVQHSYVLLTLELMKKFGAKVKYDSSLKEIVVYPSKYTPQDINLEADVSTACYFLALAAVTNGKVQIDNLTYETKQPDIKMVDILERMGCKVTRGSSFIEIEGVSQLKGGFEISMREMSDQVLTLAAIAPFADEPITIKDVEHIRHHESNRISVLVDSLSRLGIIVEEFKDGLKVYPGNPKATLLDTHDDHRVAMALSLIGSRVEGIQINDPGCVSKTCPQYFELLEKLGLNIIKH | 8 nmol/min/µg | – | 6.3 µM | 2.5 h | – | 421 µM
3 | GRG36(ace8): GRG36 protein variant, SEQ ID NO:28, encoded by syngrg36(ace8) (protein, GRG36 variant (GRG36(ace8))) MKNQNFDAKARSPWTPLKGVNKISVSPSKGRINGTVTIPGSKSLTNRALIISSLASGKSKVQGILKSDDSFWCLDSLKKLGVNVKIQGDTAFIEGNGGKWESGDLYIGAAGTIARFLPGALAVSGTGIWELEASKSMSKRPISPLVDALKELGAEITYLSDQGYYPLLVKGKQLNGGEVELSGRISSQFISGLLIASPYLNDPIKINIKDHIVQHSYVLLTLELMKKFGAKVKYDSSLKEIVVYPSKYTPQDINLEADVSTACYFLALAAVTNGKVQIDNLTYETKQPDIKMVDILERMGCKVTRGSSFIEIEGVSQLKGGFEISMREMSDQVLTLAAIAPFADEPITITDVEHIRHHESNRISVLVDSLSRLGIIVEEFKDGLKVYPGNPKATLLDTHDDHRVAMALSMIGSRVEGIQINDPGCVSKTCPQYFELLEKLGLNIIKH | 6.8 nmol/min/µg | – | 11 µM | 7.3 h | 2.5 fold | 435 µM

Source: patent US8247535B2, “Directed evolution of GRG31 EPSP synthase enzyme” (Athenix Corp., priority 2008, dated 2012)
